Data on 1 substance can be found in article PMC2971551.

The target of this assay is truncated neck domain fragment of DC-SIGNR (neck lacking the N-terminal non-repeat region and the first half of the first repeat unit) (human). Description: SEC; gel filtration of the purified truncated fragment; profile superimposed on that of the previously described DC-SIGN extracellular domain. Background: In gel filtration, larger molecules generally elute earlier.

In turn, “truncated neck domain fragment of DC-SIGNR (neck lacking the N-terminal non-repeat region and the first half of the first repeat unit) (domain or fragment)” registered a stoichiometry N of 4.

One may read the stoichiometry N as the number of molecules, sites or subunits per partner or assembly.
